This experiment has as its target GST-tagged importin α7 lacking the IBB (human). Briefly: pull-down.

On to “influenza A virus (H1N1 strain A/WSN/33) monomeric nucleoprotein (from UniProt P15682 1-498) (natural protein)”, for which the quantity recovered relative to importin α1 was found to be 2 fold.
